Series [1] is described as follows: folding stability dG unfold (combined trypsin and chymotrypsin); higher = more stable. Put shortly:
(§1)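 Mini-proteins designed to be under 80 residues and free of cysteine were carried in a PA-tagged cDNA display construct and digested with trypsin and with chymotrypsin. Each protease was applied at 11 threefold-diluted concentrations, alongside a no-protease condition, before sequencing. K50 came from Bayesian fitting of the sequencing counts, and unfolding free energy was obtained by comparing it with a sequence-predicted unfolded-state K50 and a shared folded-state K50, for each protease separately or for both together. Designs were retained only if their AlphaFold2 dimer inter-PAE exceeded 15.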

The nature of series [2]: folding stability dG unfold from trypsin proteolysis; higher = more stable. Put shortly:
as §1

A short description of series [3]: folding stability dG unfold from chymotrypsin proteolysis; higher = more stable. Put shortly:
as §1

± gives the half width of the 95% confidence interval.

Consider “SERLKLKITIKNANGETYEVEIEFDLETNELTIKVKPVPALPPVTEKRVVKKDGKLVEETRTVLLSEEDLSA [r9_587_TrROS_Hall]”, for which the “folding stability dG unfold” value came out at 1.74 ± 0.38 kcal/mol in series [1], 1.02 ± 0.16 kcal/mol in series [2] and 1.83 ± 0.1 kcal/mol in series [3].

With “SETETITVEVTMPAEELANMSAEELAARLREAFPDLKITSISITVEEVEDPETGERLVRVTVTITVERVPSA [r9_1189_TrROS_Hall]”, the “folding stability dG unfold” value in series [1] was determined as 4.31 ± 0.15 kcal/mol; in series [2], 4.28 ± 0.11 kcal/mol; in series [3], 3.4 ± 0.068 kcal/mol.

For the sequence “SETITLEIELPDGSKLTIEIPVEKIPGVDEYVVTVKITEYLPNGKPRSREFTFLAKSPEEAVEIALLAAGSA [r9_337_TrMRF]”, the “folding stability dG unfold” value in series [1] was 5.57 ± 0.21 kcal/mol; in series [2] it was 4.7 ± 0.24 kcal/mol; in series [3], 5.57 ± 0.16 kcal/mol.

On to “SETYKVTVLAEVRIYSRSPDGTWKPIGVFPVEATVEYPAEYREEAERKAVEKVEEEVRKFAESHGVVVEASA [r9_356_TrMRF]”, for which the “folding stability dG unfold” value in series [1] was found to be 1.91 ± 0.16 kcal/mol; in series [2], 1.57 ± 0.043 kcal/mol; in series [3] it was 2.31 ± 0.13 kcal/mol.

For “SEVKLEVEEEEDGTLRVRLEVKLTREDGREVTRELELELTIELPPVEFETEEERRAALERLLEELEKLLESA [r9_790_TrROS_Hall]”, the “folding stability dG unfold” value in series [1] was found to be 3.52 ± 0.13 kcal/mol; in series [2] it was 3.18 ± 0.075 kcal/mol; in series [3] it was 3.89 ± 0.18 kcal/mol.

Take “SEYSRIEFEDYTVLVVKKTLPNGKPLYLVRLYRKEDPKVDPVEVDSPEEAEEAVKELLKKHLPGEEVEKESA [r9_749_TrMRF]”: the “folding stability dG unfold” value in series [1] came to 3.08 ± 0.15 kcal/mol; in series [2], 2.3 ± 0.11 kcal/mol; in series [3], 3.3 ± 0.033 kcal/mol.

“SFEIEILDVDPDGWIVITIRYPSPDGKPLTPEEMEEIAEEIALELFPQFPDFKVTIEHDPESGTITIVIRSA [r9_485_TrROS]”: the entries for the “folding stability dG unfold” value in series [1], in series [2] and in series [3] were 4.15 ± 0.43 kcal/mol, 4.25 ± 0.35 kcal/mol and 3.59 ± 0.3 kcal/mol, respectively.

Regarding “SFRIMASYDPDYGTITVYVQFQDPDNGEPIPAEEIAKEIAEQFPGAKIDDIEPNPDGWFKIEIKVPPGAFSA [r9_87_TrROS]”, the figures for the “folding stability dG unfold” value in series [1], in series [2] and in series [3] were 2.46 ± 0.19 kcal/mol, 2.19 ± 0.077 kcal/mol and 2.55 ± 0.044 kcal/mol, respectively.

For the sequence “SGEFKPIATIDAKDGKPEAIIDSVKELLPDSGPVLVVLDLPDGPPKVNVIDPSTGKVREFVPGGNITIVPSA [r9_853_TrMRF]”, the “folding stability dG unfold” value in series [1] was 1.03 ± 0.056 kcal/mol; in series [2], 0.355 ± 0.037 kcal/mol; in series [3] it was 1.39 ± 0.021 kcal/mol.

On to “SGEIIGEQTFPVEDGGKVPVKIYKNPGNLYAEVFNDDDKPIQEQEIPPDDDLEDIENIKLPPGAWVRIYWSA [r9_215_TrROS]”, for which the figures for the “folding stability dG unfold” value in series [1], in series [2] and in series [3] were 0.433 ± 0.3 kcal/mol, 0.205 ± 0.14 kcal/mol and 0.368 ± 0.39 kcal/mol, respectively.

With “SGISNEEIKKILEEIAKEYPGLKIEIKPGTEPSVAKGPKAVVTLTRKPGYLEITITFPETGETTTIPIPPSA [r9_1062_JUSTAS]”, the “folding stability dG unfold” value in series [1] stood at 2.64 ± 0.043 kcal/mol; in series [2], 2.51 ± 0.072 kcal/mol; in series [3] it was 2.721 ± 0.02 kcal/mol.

Consider “SGKVKVKVEIPIPFRPPDGKWMMMNIWVEAEVPVTPEDLNNGKPRIRPEALDEAKDKVREWMRDIFGEPISA [r9_629_TrROS]”, for which the “folding stability dG unfold” value in series [1] is 1.45 ± 0.13 kcal/mol; in series [2] it was 1.03 ± 0.052 kcal/mol; in series [3], 1.74 ± 0.11 kcal/mol.

For the sequence “SGLAPGEVVPEKFEREITDPETGKKYKVEVTTEIAPENPVRRVTVTTTPPDGTTTTTEEVIPPGEEYTLESA [r9_88_JUSTAS]”, the “folding stability dG unfold” value in series [1] is 0.468 ± 0.077 kcal/mol; in series [2] it was -0.889 ± 0.27 kcal/mol; in series [3], 0.867 ± 0.092 kcal/mol.

Turning to “SGLLEKFLKEAEEWIKKLGLKVKPGEKVEIPIPFENNLIAKIEFYPGEKIIKVVLIGENKPVEYKFKIEKSA [r9_426_TrMRF]”, the results for the “folding stability dG unfold” value in series [1], in series [2] and in series [3] were 1.88 ± 0.45 kcal/mol, 1.53 ± 0.16 kcal/mol and 2.32 ± 0.17 kcal/mol, respectively.

Take “SGLVEAIAKALGAESVTPHPDGTFSLRLKDGSYLKIKVEVLEVRERPDGSPEFIVKIEIEVFEGGKPEDESA [r9_648_TrMRF]”: the “folding stability dG unfold” value in series [1] is more than 6 kcal/mol; in series [2], 4.56 ± 0.14 kcal/mol; in series [3], 5.94 ± 0.065 kcal/mol.

For “SGMIDVDLDYTTEDGRPVKVSASYDPATGVLTFKVPDNDDVIIATVTEVTTEDESVTVTLNVTRYSKELLSA [r9_587_JUSTAS]”, the “folding stability dG unfold” value was found to be 2.09 ± 0.14 kcal/mol in series [1], 0.957 ± 0.072 kcal/mol in series [2] and 2.54 ± 0.066 kcal/mol in series [3].

Regarding “SGMMRTIVLKIPIEEARKLLGDPNKPVSEEELKALVEKLAKEKGLDVEEIKVEKLPDGTYVVTVLVPDLGSA [r9_52_JUSTAS]”, the “folding stability dG unfold” value was 3.81 ± 0.099 kcal/mol in series [1], 3.06 ± 0.12 kcal/mol in series [2] and 4.12 ± 0.076 kcal/mol in series [3].

With “SGMPPVSFANLELVAVSPDGTVTVVRAELTGPDGERYVWTGSLSELLKRLEEEDLTLDNFKEGGLIVAVDSA [r9_1078_TrMRF]”, the “folding stability dG unfold” value is 3.44 ± 0.041 kcal/mol in series [1], 2.77 ± 0.06 kcal/mol in series [2] and 3.75 ± 0.039 kcal/mol in series [3].

The record behind these values is the supplement of paper PMC12764529.
